Experimental data reported in patent US20250333508A1.

Tests used:
[1] = molecular target: cynomolgus monkey CTLA-4. his tag protein (cynomolgus monkey) (UniProt G7PL88); assay: ELISA on coated cynomolgus monkey CTLA-4 his tag protein, goat anti-human IgG-Fc HRP; unit from the axis; the isotype curve is flat at OD450 0, so the number comes from a fit of a flat line
[2] = molecular target: murine CTLA-4. his tag protein (murine) (UniProt P09793); assay: ELISA on coated mouse CTLA-4 his tag protein, goat anti-human IgG-Fc HRP; unit from the axis; the isotype curve is flat at OD450 0, so the number comes from a fit of a flat line
[3] = molecular target: human CTLA-4 his tag antigen (human) (UniProt P16410); assay: ELISA on coated human CTLA-4 his tag protein, goat anti-human IgG-Fc HRP; unit from the axis; the isotype curve is flat at OD450 0, so the number comes from a fit of a flat line

Measured: EC50

Sequence of UniProt P09793 (P09793 36-161 limits assumed): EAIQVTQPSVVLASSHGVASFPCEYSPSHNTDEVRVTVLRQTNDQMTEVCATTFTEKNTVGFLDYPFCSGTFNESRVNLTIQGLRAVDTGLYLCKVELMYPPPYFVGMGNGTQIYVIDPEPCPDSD
Sequence of UniProt P16410 (P16410 36-161 limits assumed): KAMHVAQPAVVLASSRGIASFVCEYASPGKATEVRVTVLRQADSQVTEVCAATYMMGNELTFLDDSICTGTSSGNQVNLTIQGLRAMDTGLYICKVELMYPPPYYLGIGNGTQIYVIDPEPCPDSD
Sequence of UniProt G7PL88 (G7PL88 entry or part of it limits assumed): as the sequence (P16410 36-161 limits assumed) above, with S14N, I18T, L106M counted along it

Isotype (antibody)
5.74 nM: [1] | [2] | [3]
